Substitutions are numbered along the chain they refer to.
B1: evgA leader WT (T7-evgA-WT) (structured_RNA)
RNA: GGGAUAAUUACUUGUCGAAUUAUCUUAAAGGAAGCUCAGAUUUUCUUAUUUUUAUUGAGAAAAUGAGAUGACGCCUUAUGUCUGUAUUACUACAGGGAGAAGGGAGAUGCUUCAUUGCAAAGGGAAUAAUCUAUGAACGCAAUAAUUAUUGAUGACCAUCCUCUUGCUAUCGCAGCAAUUCGUAAUUUAUUGAUCAAAAACGAUAUUGAAAUCUUAGCAGAGUUGACUGAAG
B2: acnA leader WT (T7-acnA-WT) (structured_RNA)
RNA: GGGAUAAUUCACCCUGAAGAGAAUCAGGGCUUCGCAACCCUGUCAUUAAGGAGGAGCUAUGUCGUCAACCCUACGAGAAGCCAGUAAGGACACGUUGCAGGCCAAAGAUAAAACUUACCACUACUACAGCCUGCCGCUUGCUGCUAAAUCACUGGGCG
B3: evgA all pred. sites mutant (PBS-I + PBS-II) (structured_RNA)
RNA: B1 RNA with A22U, U25G, G30C, G65A, G70C, G139C, A141U
B4: evgA GGA2 mutant (GGA to AGA) (structured_RNA)
RNA: B1 RNA with G96A
B5: evgA GGA4 mutant (AGGGAA to AAGGGG) (structured_RNA)
RNA: B1 RNA with G122A, A125G, A126G
B6: evgA no GGAs mutant (structured_RNA)
RNA: B1 RNA with U25G, G30C, C74G, G96A, G103C, G122A, A125G, A126G
B7: acnA PBS-I mutant (mut1, GGAGGA to CCACCA) (structured_RNA)
RNA: B2 RNA with G50C, G51C, G53C, G54C, C63G
B8: acnA PBS-III mutant (mut3, AAAGAU to UAACUU) (structured_RNA)
RNA: B2 RNA with A104U, G107C, A108U
B9: acnA PBS-I & PBS-III double mutant (dm-1&3) (structured_RNA)
RNA: B2 RNA with G50C, G51C, G53C, G54C, C63G, A104U, G107C, A108U

Columns and labels:
Settings in all cases: protein: recombinant; chain copies: 2; label: 5'-32P
CsrA [1] = target: T1, CsrA (Escherichia coli, UniProt P69913 1-61); experiment: EMSA; excess yeast total RNA; 0.5 nM 32P-RNA, 0-300 nM CsrA, 30 min, excess yeast total RNA; 10% native PAGE, 0.5x TBE, 4 C, 170 V; binding buffer, pH and temperature not stated (as in refs)
T1 sequence (P69913 whole entry): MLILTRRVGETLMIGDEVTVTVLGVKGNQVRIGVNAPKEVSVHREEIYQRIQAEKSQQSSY

CsrA [2] = target: T1, CsrA; experiment: as above; remark: listed apart in the source
CsrA [3] = target: T1, CsrA; experiment: EMSA; excess yeast total RNA; reduced curve amplitude; 0.5 nM 32P-RNA, 0-300 nM CsrA, 30 min, excess yeast total RNA; 10% native PAGE, 0.5x TBE, 4 C, 170 V; binding buffer, pH and temperature not stated (as in refs)
CsrA [4] = target: T1, CsrA; experiment: EMSA; excess yeast total RNA; 0.5 nM 32P-RNA, 0-300 nM CsrA, 30 min, excess yeast total RNA; 10% native PAGE, 0.5x TBE, 4 C, 170 V; binding buffer, pH and temperature not stated (as in refs); remark: listed apart in the source

Binder | binding signal (CsrA [2]) [fold increase in Kd vs WT] | binding signal (CsrA [4]) [fold increase in Kd vs WT] | also measured
B1 |  |  | Kd (CsrA [1]): ~83.7 nM
B2 |  |  | Kd (CsrA [1]): ~90.9 nM
B3 | ~1.2 |  | 
B4 | ~1.6 |  | 
B5 | ~2 |  | 
B6 |  |  | binding signal (CsrA [3]): ~2.8 fold increase in Kd vs WT
B7 |  | ~1.7 | 
B8 |  | ~1.6 | 
B9 |  | ~2 | 

Source: PMC11052181, “The Post-Transcriptional Regulatory Protein CsrA Amplifies Its Targetome through Direct Interactions with Stress-Response Regulatory Hubs: The EvgA and AcnA Cases”
